Results as given in paper PMC13351892, “Tool antibody fragments reveal multiple conformations of the rhodopsin-Gi signaling complex” (Biophysical Journal, 2025).

Molecular target: T1, human Gαi1 (human, UniProt P63096)
T1 construct: also called Gαi subunit; source: prepared as described (11)
Experiment: cryo-EM structure; Rho-Gαiβγ-scFv16-Fab79, mixed 1:1.4:1.4 in 0.02% LMNG, purified by SEC; two conformations at 5.2 and 5.9 Å
Conditions: both partners purified

T1 sequence (P63096 whole entry): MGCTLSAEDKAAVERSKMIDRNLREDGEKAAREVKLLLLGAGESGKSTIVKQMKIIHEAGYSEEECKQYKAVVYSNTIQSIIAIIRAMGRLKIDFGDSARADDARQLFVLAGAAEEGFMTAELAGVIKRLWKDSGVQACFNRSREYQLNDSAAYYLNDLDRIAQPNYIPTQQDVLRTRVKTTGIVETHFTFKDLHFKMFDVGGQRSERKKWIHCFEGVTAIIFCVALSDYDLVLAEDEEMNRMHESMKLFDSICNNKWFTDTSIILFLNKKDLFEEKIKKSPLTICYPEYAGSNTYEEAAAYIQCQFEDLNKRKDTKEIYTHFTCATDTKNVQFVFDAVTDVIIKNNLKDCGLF

binding result: binds
B1: Fab79 (Fab, V domains shown)
VH: EVQLVESGGGLVKPGGSLKLSCAASGFTFSSYAMSWVRQTPEKRLEWVATISSRGLYTYFPDSMKGRFTISRDNAKNTLSLQMSSLRSEDTAMYYCLRGGGYDADYWGQGTTLTVSS
VL: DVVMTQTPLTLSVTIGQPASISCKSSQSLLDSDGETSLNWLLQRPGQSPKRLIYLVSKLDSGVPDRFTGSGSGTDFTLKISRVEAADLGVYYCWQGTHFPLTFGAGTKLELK
notes: Fab79 heavy chain; also in the deposited models PDB 8P13 and 8P15; Fab79 light chain; source: prepared as described (11); from mice immunized with the purified Rho-Gαiβγ complex
